Data: patent publication US20250382602
Where a chain is given by its changes, count along the chain named.

What was measured:
Conditions in all cases: nanopore translocation, FLO-MIN112; background mutations not given
[1] = target: T1, Dda 1993 K358E K358E (Enterobacteria phage T4) (UniProt P32270)
T1 sequence: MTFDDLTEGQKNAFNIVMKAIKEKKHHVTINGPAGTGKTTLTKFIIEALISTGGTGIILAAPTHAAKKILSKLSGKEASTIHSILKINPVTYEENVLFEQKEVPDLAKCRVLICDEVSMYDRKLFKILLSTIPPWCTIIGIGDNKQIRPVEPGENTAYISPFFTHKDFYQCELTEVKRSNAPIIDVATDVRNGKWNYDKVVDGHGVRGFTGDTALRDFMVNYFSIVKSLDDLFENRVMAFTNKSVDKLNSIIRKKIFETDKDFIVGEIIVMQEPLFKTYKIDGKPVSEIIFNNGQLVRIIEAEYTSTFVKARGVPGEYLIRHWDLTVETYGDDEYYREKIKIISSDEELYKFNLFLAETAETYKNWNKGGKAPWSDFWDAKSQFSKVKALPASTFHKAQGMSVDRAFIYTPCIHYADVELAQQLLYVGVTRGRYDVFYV

[2] = target: T2, Dda 1993 K358I K358I (Enterobacteria phage T4) (UniProt P32270)
T2 sequence: T1 sequence with E358I

[3] = target: T3, Dda 1993 K358M K358M (Enterobacteria phage T4) (UniProt P32270)
T3 sequence: T1 sequence with E358M

[4] = target: T4, Dda 1993 361Q 361Q (Enterobacteria phage T4) (UniProt P32270)
T4 sequence: T1 sequence with E358K, E361Q

[5] = target: T5, Dda 1993 K358A K358A (Enterobacteria phage T4) (UniProt P32270)
T5 sequence: T1 sequence with E358A

[6] = target: T6, Dda 1993 Y350I Y350I (Enterobacteria phage T4) (UniProt P32270)
T6 sequence: T1 sequence with Y350I, E358K

Work on “barcoded 3.6 kb DNA analyte ligated to sequencing Y adaptor” yielded an activity (bps speed delta vs control) [1] of -7.28, an activity (bps speed delta vs control) [2] of -5.51 and an activity (bps speed delta vs control) [3] of -11.8. For the same substance, the activity (bps speed delta vs control) [4] was 13.8, the activity (bps speed delta vs control) [5] was -0.99 and the activity (bps speed delta vs control) [6] was 2.22.
